{
  "source": "paper doi:10.1101/2025.01.09.632101",
  "target": "DPEP1-Avi: porcine DPEP1 ectodomain (residues 17-385) with Strep and Avi tags, biotinylated (porcine (Sus scrofa)) (UniProt P22412)",
  "sequence (P22412 17-385)": "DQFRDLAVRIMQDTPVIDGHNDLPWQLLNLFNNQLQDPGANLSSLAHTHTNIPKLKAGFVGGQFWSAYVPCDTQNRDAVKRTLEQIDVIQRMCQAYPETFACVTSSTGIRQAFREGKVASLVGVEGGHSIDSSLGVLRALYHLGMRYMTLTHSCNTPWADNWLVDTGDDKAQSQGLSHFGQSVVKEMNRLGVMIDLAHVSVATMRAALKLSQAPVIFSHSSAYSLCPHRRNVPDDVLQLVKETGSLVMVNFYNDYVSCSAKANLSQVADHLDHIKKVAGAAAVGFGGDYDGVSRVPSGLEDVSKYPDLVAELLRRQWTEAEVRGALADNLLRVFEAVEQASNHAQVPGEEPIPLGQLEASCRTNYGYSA",
  "test": "BLI",
  "data": [
    {"substance": "PHEV spike RBD (residues 327-605), from Expi293F cells, with His, Strep and Avi tags (domain or fragment)", "values": [
      {"measurement": "Kd", "result": 1.5, "unit": "µM"}
    ]}
  ]
}
